First the molecules themselves.
T1: Perilipin epitope 5 peptide AKPSLLSRVGALTNT (SEQ ID NO. 332) (human, Biotin-PEG Spacer and GGSGGS Linker (SEQ ID NO. 438) at the N-terminus, or Biotin-PEG Spacer and AAAAA Linker (SEQ ID NO. 439) at the C-terminus)
T1 construct: Two biotinylated variants were used for selection and ELISA; On the peptide array it stood without biotin; also called target peptide
T1 peptide: AKPSLLSRVGALTNT

T2: Perilipin epitope 1 peptide NKGLTLLDGDLPEQE (SEQ ID NO. 330) (human, Biotin-PEG Spacer and GGSGGS Linker (SEQ ID NO. 438) at the N-terminus, or Biotin-PEG Spacer and AAAAA Linker (SEQ ID NO. 439) at the C-terminus)
T2 construct: Two biotinylated variants were used for selection and ELISA; On the peptide array it stood without biotin; also called target peptide
T2 peptide: NKGLTLLDGDLPEQE

T3: Perilipin epitope 2 peptide QYPPEKIASELKDTI (SEQ ID NO. 331) (human, Biotin-PEG Spacer and GGSGGS Linker (SEQ ID NO. 438) at the N-terminus, or Biotin-PEG Spacer and AAAAA Linker (SEQ ID NO. 439) at the C-terminus)
T3 construct: Two biotinylated variants were used for selection and ELISA; On the peptide array it stood without biotin; also called target peptide
T3 peptide: QYPPEKIASELKDTI

T4: Perilipin epitope 6 peptide EVRVPWLHSLAAAQE (SEQ ID NO. 333) (human, Biotin-PEG Spacer and GGSGGS Linker (SEQ ID NO. 438) at the N-terminus, or Biotin-PEG Spacer and AAAAA Linker (SEQ ID NO. 439) at the C-terminus)
T4 construct: Two biotinylated variants were used for selection and ELISA; On the peptide array it stood without biotin; also called target peptide
T4 peptide: EVRVPWLHSLAAAQE

B1: Antibody No. 13 (antibody, V domains shown)
VH: QVQLVQSGGGLVQPGRSLRLSCAASGFTFDDYAMHWVRQAPGKGLEWVSGISWNSGSIGYADSVKGRFTISRDNAKNSLYLQMNSLRAEDTALYYCAKEDGSYALDYWGQGTLVTVSS
VL: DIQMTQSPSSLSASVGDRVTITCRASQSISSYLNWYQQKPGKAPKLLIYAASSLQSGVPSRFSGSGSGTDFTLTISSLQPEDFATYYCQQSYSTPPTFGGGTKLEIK
notes: human IgG1, lambda or kappa light chain; also called 432-G09
B2: Antibody No. 34 (antibody, V domains shown)
VH: B1 VH with Q6E, D100G, S102D, Y103S, A104D, L105F
VL: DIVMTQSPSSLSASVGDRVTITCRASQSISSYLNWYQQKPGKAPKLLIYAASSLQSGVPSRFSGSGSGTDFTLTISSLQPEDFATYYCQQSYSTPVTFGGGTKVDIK
notes: human IgG1, lambda or kappa light chain; also called 447-B01
B3: Antibody No. 14 (antibody, V domains shown)
VH: QVQLVESGGGLVQPGRSLRLSCAASGFTFDDYAMHWVRQAPGKGLEWVSGISWNSGSIGYADSVKGRFTISRDNAKNSLYLQMNSLRAEDTALYYCAKEGYGNDAFDIWGQGTMVTVSS
VL: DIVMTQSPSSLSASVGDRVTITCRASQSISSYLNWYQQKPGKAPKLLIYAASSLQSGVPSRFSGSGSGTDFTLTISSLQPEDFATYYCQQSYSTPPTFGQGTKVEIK
notes: human IgG1, lambda or kappa light chain; also called 432-H10
B4: Antibody No. 37 (antibody, V domains shown)
VH: QVQLVQSGAEVKKPGASVKVSCKASGYTFTSYYMHWVRQAPGQGLEWMGIINPSGGSTSYAQKFQGRVTMTRDTSTSTVYMELSSLRSEDTAVYYCARDSYYDSSGYYYADAFDIWGQGTMVTVSS
VL: QSVLTQPPSVSGAPGQRVTISCTGSSSNIGAGYDVHWYQQLPGTAPKLLIYGNSNRPSGVPDRFSGSKSGTSASLAITGLQAEDEADYYCQSYDSSLSGDVVFGGGTKLTVL
notes: human IgG1, lambda or kappa light chain; also called 447-F02
B5: Antibody No. 22 (antibody, V domains shown)
VH: QVQLVESGGGVVQPGRSLRLSCAASGFTFSSYGMHWVRQAPGKGLEWVAVISYDGSNKYYADSVKGRFTISRDNSKNTLYLQMNSLRAEDTAVYYCANTPGGLTPFDYWGQGTLVTVSS
VL: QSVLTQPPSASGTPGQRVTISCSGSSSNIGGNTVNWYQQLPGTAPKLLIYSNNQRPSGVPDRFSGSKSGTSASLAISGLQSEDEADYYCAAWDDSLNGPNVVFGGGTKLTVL
notes: human IgG1, lambda or kappa light chain; also called 447-H03
B6: Antibody No. 36 (antibody, V domains shown)
VH: EVQLVESGGGVVQPGRSLRLSCAASGFTFSSYAMHWVRQAPGKGLEWVAVISYDGSNKYYADSVKGRFTISRDNSKNTLYLQMNSLRAEDTAVYYCARDPLYGMDVWGQGTLVTVSS
VL: QSVLTQPPSASGSPGQSVTISCTGTSSDVGNYNYVSWFQQHPGKAPKLMIYEVSKRPSGVPDRFSGSKSGNTASLTVSGLQAEDEADYYCASYADSNNLYVFGTGTKLTVL
notes: human IgG1, lambda or kappa light chain; also called 447-B03
B7: Antibody No. 19 (antibody, V domains shown)
VH: QVQLVQSGGGVVQPRRSLRLSCAASGFTFSSYAMHWVRQAPGKGLEWVAVISYDGSNKYYADPVKGRFTISRDNSKNTLYLQMNSLRAEDTAVYYCARGGDGYNWDAFDIWGQGTMVTVSS
VL: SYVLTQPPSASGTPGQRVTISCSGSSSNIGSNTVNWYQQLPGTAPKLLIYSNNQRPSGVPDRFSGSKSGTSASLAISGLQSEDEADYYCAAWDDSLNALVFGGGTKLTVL
notes: human IgG1, lambda or kappa light chain; also called 447-D04
B8: Antibody No. 35 (antibody, V domains shown)
VH: QVQLVQSGAEVKKPGTTVKISCKVSGYSFTDYYMHWVQQAPGKGLEWMGLVDPEDGETLYAEKFQGRVTITVDTSTDTAYMELSSLRSEDTAVYYCAAEPQMVQGPSPPDYWGQGTLVTVSS
VL: QSALTQPASVSGSPGQSITISCTGTSSDVGGYSYVSWYQQHPGKAPKLMIYDVSNRPSGVSNRFSGSKSGNTASLTISGLQAEDEADYYCSSYTSSSTLLFGGGTKLTVL
notes: human IgG1, lambda or kappa light chain; also called 447-E03
B9: Antibody No. 21 (antibody, V domains shown)
VH: QVQLVESGGGLVQPGRSLRLSCAASGFTFDDYAMHWVRQAPGKGLEWVSGISWNSGSIGYADSVKGRFTISRDNAKNSLYLQMNSLRAEDTALYYCAKEGEYSYGGGEFDPWGQGTLVTVSS
VL: B8 VL with S33N, L99W, L100V
notes: human IgG1, lambda or kappa light chain; also called 447-G03
B10: Antibody No. 18 (antibody, V domains shown)
VH: EVQLLESGGGLVQPGRSLRLACVASGFTFDDYGMHWVRQAPGKGLEWVAVISYDGSNKYYADSVKGRFTISRDNSKNTLYLQMNSLRAEDTAVYYCAKAYGEGGFDPWGQGTLVTVSS
VL: QSALTQPASVSGSPGQSITISCTGTSSDVGGYNYVSWYQQHPGKAPKLMIYEVSNRPSGVSNRFSGSKSGNTASLTISGLQAEDEADYYCSSYTSSSTTWVFGGGTKVTVL
notes: human IgG1, lambda or kappa light chain; also called 447-D03
B11: Antibody No. 17 (antibody, V domains shown)
VH: EVQLVQSGGGVVQPGRSLRLSCAASGFTFSSYGMHWVRQAPGKGLEWVAVISYDGSNKYYADSVKGRFTISRDNSKNTLYLQMNSLRAEDTAVYYCAKDIFMDVWGQGTMVTVSS
VL: B10 VL with E52D, T99L, W100V, V108L
notes: human IgG1, lambda or kappa light chain; also called 447-C04
B12: Antibody No. 16 (antibody, V domains shown)
VH: QVQLVEFGGGVVQPGRSLRLSCAASGFTFSSYGMHWVRQAPGKGLEWVAAISYDGSNKYYADSVKGRFTISRDNSKNTLYLQMNSLRAEDTAVYYCAKDMGLSWYGEFDYWGQGTLVTVSS
VL: QSVLTQPPSVSEAPRQRVTISCSGSSSNIGNNAVSWYQQLPGKAPKLLIYYDDLLPSGVSDRFSGSKSGTSASLAISGLQSEDEADYYCAAWDDSLNWVFGGGTKLTVL
notes: human IgG1, lambda or kappa light chain; also called 447-B05
B13: Antibody No. 38 (antibody, V domains shown)
VH: EVQLVQSGAEVKKPGASVKVSCKASGYTFTSYYMHWVRQAPGQGLEWMGIINPSGGSTSYAQKFQGRVTMTRDTSTSTVYMELSSLRSEDTAVYYCARNVPGDYEVGFDYWGQGTLVTVSS
VL: QSVLTQPPSVSGAPGQRVTISCTGSSSNIGAGYDVHWYQQLPGTAPKLLIYGNSNRPSGVPDRFSGSKSGTSASLAITGLQAEDEADYYCQSYDSSLSAVVFGGGTKLTVL
notes: human IgG1, lambda or kappa light chain; also called 447-A05
B14: Antibody No. 7 (antibody, V domains shown)
VH: QVQLVQSGGSVVQPGRSLRLSCAASGFTFSSYAMHWVRQAPGKGLEWVAVISYDGSNKYYADSVKGRFTISRDNSKNTLYLQMNSLRAEDTAVYYCARFASIAARPFDYWGQGTLVTVSS
VL: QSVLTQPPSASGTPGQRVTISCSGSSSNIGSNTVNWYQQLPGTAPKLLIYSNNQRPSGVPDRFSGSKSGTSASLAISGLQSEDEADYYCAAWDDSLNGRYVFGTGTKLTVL
notes: human IgG1, lambda or kappa light chain; also called 448-D02
B15: Antibody No. 9 (antibody, V domains shown)
VH: B6 VH with E1Q, E6Q, A33G, R98N, D99N, L101S, Y102S, M104A, V106Y
VL: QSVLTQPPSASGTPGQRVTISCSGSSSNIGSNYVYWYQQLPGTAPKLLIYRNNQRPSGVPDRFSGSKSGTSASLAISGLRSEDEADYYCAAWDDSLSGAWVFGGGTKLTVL
notes: human IgG1, lambda or kappa light chain; also called 448-G01
B16: Antibody No. 8 (antibody, V domains shown)
VH: QVQLVESGAEVKKPGASVKVSCKASGYTFTSYGISWVRQAPGQGLEWMGWISAYNGNTNYAQKLQGRVTMTTDTSTSTAYMELRSLRSDDTAVYYCARGGSSSNYWGQGTLVTVSS
VL: B8 VL with S33N, D52E, L100V
notes: human IgG1, lambda or kappa light chain; also called 448-E03
B17: Antibody No. 6 (antibody, V domains shown)
VH: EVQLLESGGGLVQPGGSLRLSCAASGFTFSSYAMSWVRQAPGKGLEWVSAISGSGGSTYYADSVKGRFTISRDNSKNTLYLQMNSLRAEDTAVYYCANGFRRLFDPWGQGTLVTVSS
VL: B10 VL with E52D, T99H, W100V, V108L
notes: human IgG1, lambda or kappa light chain; also called 448-B03
B18: Antibody No. 5 (antibody, V domains shown)
VH: QVQLVESGGGVVQPGRSLRLSCAASGFTFSSYAMHWVRQAPGKGLEWVAVISYDGSNKYYADSVKGRFTISRDNSKNTLYLQMNSLRAEDTAVYYCARIAAAGPFDYWGQGTLVTVSS
VL: SYVLTQPPSVSEAPRQRVTISCSGSSSNIGNNAVNWYQQLPGKAPKLLIYYDDLLPSGVSDRFSGSKSGTSASLAISGLQSEDEADYYCAAWDDSLNGVVFGGGTKLTVL
notes: human IgG1, lambda or kappa light chain; also called 438-G12; antibody #5
B19: Antibody No. 10 (antibody, V domains shown)
VH: EVQLVQSGAEVKKPGSSVKISCKASGGTFSSYAISWVRQAPGQGLEWMGGIIPIFGTANYAQKFQGRVTITADESTSTAYMELSSLRSEDTAVYYCARSHSSGWEWWGQGTLVTVSS
VL: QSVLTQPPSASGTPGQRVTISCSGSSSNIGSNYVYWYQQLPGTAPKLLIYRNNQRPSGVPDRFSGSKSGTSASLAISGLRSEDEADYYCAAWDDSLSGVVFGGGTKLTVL
notes: human IgG1, lambda or kappa light chain; also called 439-E10
B20: Antibody No. 28 (antibody, V domains shown)
VH: B6 VH with E1Q, E6Q, P100S, L101G, Y102V, G103V, V106Y
VL: B8 VL with S33N, L100V, L107V
notes: human IgG1, lambda or kappa light chain; also called 447-F08
B21: Antibody No. 31 (antibody, V domains shown)
VH: EVQLLESGGGVVQPGRSLRLSCAASGFTFSSYAMHWVRQAPGKGLEWVAVISYDGSNKYYADSVKGRFTISRDNSKNTVSLQMSSLRADDTAIYYCVKDTILIDWGQGTLVTVSS
VL: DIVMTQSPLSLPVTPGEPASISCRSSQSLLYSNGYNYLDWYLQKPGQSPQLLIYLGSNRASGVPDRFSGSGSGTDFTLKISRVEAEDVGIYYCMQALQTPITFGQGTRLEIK
notes: human IgG1, lambda or kappa light chain; also called 448-E06
B22: Antibody No. 26 (antibody, V domains shown)
VH: EVQLLESGGGVVQPGRSLRLSCAASGFTFSSYAMHWVRQAPGKGLEWVAVISYDGSNKYYADSVKGRFTISRDNSKNTLYLQMNSLRAEDTAVYYCARELYYGPGGMDVWGQGTLVTVSS
VL: B13 VL with A99G, V100S
notes: human IgG1, lambda or kappa light chain; also called 447-D06
B23: Antibody No. 30 (antibody, V domains shown)
VH: EVQLVQSGGGLVQPGGSLRLSCAASGFTFSSYAMSWVRQAPGKGLEWVSAISGSGGSTYYADSVKGRFTISRDNAKNSLYLQMNSLRAEDTAVYYCARVRVSDGRFDYWGQGTLVTVSS
VL: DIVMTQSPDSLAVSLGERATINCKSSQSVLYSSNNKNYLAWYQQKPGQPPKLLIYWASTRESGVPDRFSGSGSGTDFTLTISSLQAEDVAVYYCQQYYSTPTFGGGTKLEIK
notes: human IgG1, lambda or kappa light chain; also called 448-E04

Positions count from the first letter of the chain named.

In the first assay the target is T1, Perilipin epitope 5 peptide …. The assay is described as follows: phage display selection and ELISA on biotinylated target peptide. (In an ELISA, binding on a coated surface is turned into a signal by an enzyme label.)
On to B1, for which the binding result is “binds”.

Take B2: the binding result is given as “binds”.

Turning to B3, the binding result was “binds”.

On to B4, for which the binding result is recorded as “binds”.

Regarding B5, the binding result is given as “binds”.

As for B6, the binding result is listed as “binds”.

Consider B7, for which the binding result is reported as “binds”.

Take B8: the binding result was “binds”.

For the molecule B9, the binding result is reported as “binds”.

As to B10, the binding result is listed as “binds”.

Regarding B11, the binding result is on record as “binds”.

For B12, the binding result is “binds”.

Turning to B13, the binding result is given as “binds”.

The next assay deals with T2, Perilipin epitope 1 peptide …. The description is as above.
For the molecule B14, the binding result is listed as “binds”.

For the molecule B15, the binding result was “binds”.

In the case of B16, the binding result is “binds”.

For the molecule B17, the binding result is listed as “binds”.

In the case of B18, the binding result was “binds”.

Another assay deals with T3, Perilipin epitope 2 peptide …. Described as above.
As to B19, the binding result is on record as “binds”.

The target in the next assay is T4, Perilipin epitope 6 peptide …. The assay is described as above.
As for B20, the binding result is reported as “binds”.

On to B21, for which the binding result is reported as “binds”.

In the case of B22, the binding result is “binds”.

For the molecule B23, the binding result was “binds”.

The values above are taken from patent US20220153822A1 (ALYTAS THERAPEUTICS, published 2022).
